Laboratory results published in US20110172153A1 (GENERAL HOSPITAL, published 2011).
Values belong to the binder of their own block, whether it stands above or below them. Square brackets hold non-standard residues; d marks the D form. Ends that are not written are not given here. hArg = N=C(N)NCCCC[C@H](N)C(=O)O; Nle = CCCC[C@H](N)C(=O)O; Aib = CC(C)(N)C(=O)O

Tests used:
[1] = molecular target: T1, human parathyroid hormone receptor (PTHR) (human, UniProt Q03431 27-593); assay: competition radioligand binding, human PTH1 receptor R0
T1 construct: Assayed in membranes of HKRK-B7 cells or of transiently transfected COS-7 cells, or on intact HKRK-B7/HKRK-B64/COS-7 cells; RG = co-transfected with negative-dominant Galpha-s; R0 = receptor alone plus GTPgammaS; also called hPTHR; human PTH receptor
T1 sequence: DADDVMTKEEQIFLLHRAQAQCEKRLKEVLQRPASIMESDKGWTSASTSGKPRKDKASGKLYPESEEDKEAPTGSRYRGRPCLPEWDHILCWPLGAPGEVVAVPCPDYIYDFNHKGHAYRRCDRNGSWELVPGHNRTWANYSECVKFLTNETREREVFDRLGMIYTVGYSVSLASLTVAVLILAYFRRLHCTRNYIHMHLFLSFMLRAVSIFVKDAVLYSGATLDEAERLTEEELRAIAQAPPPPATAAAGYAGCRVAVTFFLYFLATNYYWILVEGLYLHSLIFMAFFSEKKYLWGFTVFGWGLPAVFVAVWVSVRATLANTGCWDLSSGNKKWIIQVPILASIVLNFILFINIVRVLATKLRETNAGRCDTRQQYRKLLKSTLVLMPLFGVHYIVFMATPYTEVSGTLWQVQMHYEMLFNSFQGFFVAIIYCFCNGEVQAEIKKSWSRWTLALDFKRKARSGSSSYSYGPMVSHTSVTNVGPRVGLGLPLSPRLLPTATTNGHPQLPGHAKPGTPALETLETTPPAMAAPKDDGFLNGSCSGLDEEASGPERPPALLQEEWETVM
Protocol: (§1) Binding Studies. Binding studies were performed using cell membranes as described (Dean et al., Mol Endocrinol 20(4):931-43 (2006)). […] Reactions contained a total membrane protein concentration of 20 to 100 μg/mL, and a total radioactivity concentration of approximately 150,000 cpm/ml. Unlabeled peptide ligands and/or GTPγS (Sigma-Aldrich Inc. St. Louis, Mo.) were added to the reactions as indicated. At the end of the reaction, bound and free radioligand were separated by vacuum filtration using a 96-well vacuum filter plate and vacuum filter apparatus (Multi-Screen system with Durapore HV, […] filters; Millipore Corp., Milford, Mass.); the air-dried filters were then detached from the plate and counted for gamma radioactivity using a gamma counter.
(§2) To assess the capacities of various unlabeled peptide ligands to bind to the G protein-uncoupled and G protein-coupled PTHR conformations (R⁰ and RG, respectively), membranes were prepared from transiently transfected COS-7 cells and the following assay conditions.

[2] = molecular target: T1, human parathyroid hormone receptor …; assay: ratio of R0 IC50 to RG IC50, human PTH1 receptor
[3] = molecular target: T1, human parathyroid hormone receptor …; assay: competition radioligand binding, human PTH1 receptor RG
Protocol: as §1, §2

[4] = molecular target: T1, human parathyroid hormone receptor …; assay: competition vs 125I-PTH(1-34) + GTPgammaS, COS-7 membranes hPTHR (R0)
Protocol: (§3) Radioligand dissociation. These studies were performed as bulk reactions in 15 mL round-bottom polystyrene snap-cap tubes (Falcon) (total reaction volume=5.0 ml). Membranes and radioligand were pre-incubated for 90 minutes to allow complex formation; the dissociation phase was then initiated by the addition of an excess of the unlabeled analog of the radioligand (5×10⁻⁷ M final concentration), with or without GTPγS (5×10⁻⁵ M). Immediately prior to this addition (t=0), and at successive time-points thereafter, 0.2 ml aliquots (30,000 cpm) were withdrawn and immediately processed by vacuum filtration, as described above. Non-specific binding was determined in parallel reaction tubes containing the unlabeled analog of the radioligand (5×10⁻⁷ M) in both the pre-incubation and dissociation phases. The specifically bound radioactivity at each time point was calculated as a percent of the radioactivity specifically bound at t=0. Equilibrium competition binding and GTPγS inhibition. […] Membranes, tracer radioligand, and various concentrations of unlabeled ligands and/or GTPγS were incubated in the wells for 90 minutes, following which, the reaction plates were processed by rapid vacuum filtration to separate bound from free radioligand, as described above. […] For both radioligands, the non-specific binding was determined in reactions containing a saturating concentration of the unlabeled analog of the radioligand. The specifically bound radioactivity was calculated as a percent of the radioactivity specifically bound in the absence of a competing ligand or GTPγS.

[5] = molecular target: T2, rat parathyroid hormone receptor (PTHR) (rat, UniProt P25961 27-591); assay: cell-based or functional assay
T2 sequence: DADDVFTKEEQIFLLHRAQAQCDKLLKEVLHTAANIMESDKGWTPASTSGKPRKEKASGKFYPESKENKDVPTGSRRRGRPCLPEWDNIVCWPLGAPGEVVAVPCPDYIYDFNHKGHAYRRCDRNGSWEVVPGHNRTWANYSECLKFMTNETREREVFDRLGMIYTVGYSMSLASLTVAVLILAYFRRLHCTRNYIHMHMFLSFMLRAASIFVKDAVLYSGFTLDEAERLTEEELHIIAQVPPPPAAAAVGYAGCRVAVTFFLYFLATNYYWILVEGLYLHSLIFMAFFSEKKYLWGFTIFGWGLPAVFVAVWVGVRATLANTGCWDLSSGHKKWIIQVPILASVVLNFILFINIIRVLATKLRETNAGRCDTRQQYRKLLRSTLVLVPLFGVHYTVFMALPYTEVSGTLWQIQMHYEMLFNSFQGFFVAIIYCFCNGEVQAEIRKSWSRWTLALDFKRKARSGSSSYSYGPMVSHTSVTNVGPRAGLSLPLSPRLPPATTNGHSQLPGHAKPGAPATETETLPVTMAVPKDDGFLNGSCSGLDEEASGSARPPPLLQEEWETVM

[6] = molecular target: T1, human parathyroid hormone receptor …; assay: competition vs 125I-[Aib1,3,M]PTH(1-15), COS-7 membranes hPTHR + GsND (RG)
Protocol: as §3

[7] = molecular target: T1, human parathyroid hormone receptor …; assay: ratio of R0 IC50 to RG IC50, hPTHR
[8] = molecular target: T1, human parathyroid hormone receptor …; assay: competition radioligand binding, hPTHR R0 conformation
Protocol: as §1, §2

[9] = molecular target: T1, human parathyroid hormone receptor …; assay: competition radioligand binding, human PIR R0
Protocol: as §1, §2

[10] = molecular target: T1, human parathyroid hormone receptor …; assay: ratio of R0 IC50 to RG IC50, hPTHR; remark: listed apart in the source
[11] = molecular target: T1, human parathyroid hormone receptor …; assay: screen, binding to human PIR RG relative to parent PTHrP(1-28)NH; footnote not given
[12] = molecular target: T1, human parathyroid hormone receptor …; assay: competition radioligand binding, hPTHR RG conformation
Protocol: as §1, §2

[13] = molecular target: T1, human parathyroid hormone receptor …; assay: competition radioligand binding, human PIR RG
Protocol: as §1, §2

[14] = molecular target: T1, human parathyroid hormone receptor …; assay: screen, binding to human PIR R0 relative to parent PTHrP(1-28)NH; footnote not given
[15] = molecular target: T1, human parathyroid hormone receptor …; assay: cell-based or functional assay
[16] = molecular target: T1, human parathyroid hormone receptor …; assay: cell-based or functional assay; remark: listed apart in the source
[17] = molecular target: T1, human parathyroid hormone receptor …; assay: cell-based or functional assay; remark: listed apart in the source

IC50 [1]: 1.2 nM | R0/RG ratio [2]: 5 | IC50 [3]: 0.23 nM
B2: F23,Mc-PTH(1-34)OH (peptide)
peptide: AVAEIQLMHQRAKWLNSMRRVEFLRKKLQDVHNF-OH
notes: Mc = A1,3,12,Q10,R11,W14,R19

IC50 [4]: 26 nM | IC50 [6]: 0.19 nM | R0:RG [7]: 138
B4: [His^5]rPTH(1-34)NH2 (peptide)
peptide: AVSEHQLMHNLGKHLASVERMQWLRKKLQDVHNF-NH2

IC50 [8]: 9240 nM | IC50 [9]: 9240 nM | R0/RG selectivity [10]: 38300 | human PIR RG (% parent) [11]: 145 % parent | IC50 [12]: 0.24 nM | IC50 [13]: 0.24 nM | human PIR R0 (% parent) [14]: 68.8 % parent
B6: E18,A22,K26-PTHrP(1-28)NH (peptide)
peptide: AVSEHQLLHDKGKSIQDERRRAFLHKLI-NH2

IC50 [4]: 71 nM | IP in COS-7/hPTHR cells, EC50 [15]: 30 nM | IP in COS-7/hPTHR cells, Emax [15]: 2230 cpm/well | cAMP in HKRK-B64 cells, EC50 [15]: 2.7 nM | cAMP in HKRK-B64 cells, Emax [15]: 59 picomole/well | IC50 [6]: 0.094 nM | R0:RG [7]: 753
B7: [His^5,Nle^8,21,Tyr^34]rPTH(1-34)NH2 (peptide)
peptide: AVSEHQL[Nle]HNLGKHLASVER[Nle]QWLRKKLQDVHNY-NH2
modifications: N-terminus assumed
SMILES: CCCC[C@H](NC(=O)[C@H](CC(C)C)NC(=O)[C@H](CCC(N)=O)NC(=O)[C@H](Cc1c[nH]cn1)NC(=O)[C@H](CCC(=O)O)NC(=O)[C@H](CO)NC(=O)[C@@H](NC(=O)[C@H](C)N)C(C)C)C(=O)N[C@@H](Cc1c[nH]cn1)C(=O)N[C@@H](CC(N)=O)C(=O)N[C@@H](CC(C)C)C(=O)NCC(=O)N[C@@H](CCCCN)C(=O)N[C@@H](Cc1c[nH]cn1)C(=O)N[C@@H](CC(C)C)C(=O)N[C@@H](C)C(=O)N[C@@H](CO)C(=O)N[C@H](C(=O)N[C@@H](CCC(=O)O)C(=O)N[C@@H](CCCNC(=N)N)C(=O)N[C@@H](CCCC)C(=O)N[C@@H](CCC(N)=O)C(=O)N[C@@H](Cc1c[nH]c2ccccc12)C(=O)N[C@@H](CC(C)C)C(=O)N[C@@H](CCCNC(=N)N)C(=O)N[C@@H](CCCCN)C(=O)N[C@@H](CCCCN)C(=O)N[C@@H](CC(C)C)C(=O)N[C@@H](CCC(N)=O)C(=O)N[C@@H](CC(=O)O)C(=O)N[C@H](C(=O)N[C@@H](Cc1c[nH]cn1)C(=O)N[C@@H](CC(N)=O)C(=O)N[C@@H](Cc1ccc(O)cc1)C(N)=O)C(C)C)C(C)C
notes: also called His^5-PTH(1-34); H^5-PTH(1-34)

IC50 [4]: 1030 nM | IC50 [6]: 0.74 nM | R0:RG [7]: 1400
B9: [Aib^1,3,Nle^8,Gln^10,homoarginine^11,Ala^12,Trp^14,Tyr^15]rPTH(1-15)NH2 (peptide)
peptide: [Aib]V[Aib]EIQL[Nle]HQ[hArg]AKWY-NH2
modifications: N-terminus assumed
SMILES: CCCC[C@H](NC(=O)[C@H](CC(C)C)NC(=O)[C@H](CCC(N)=O)NC(=O)[C@@H](NC(=O)[C@H](CCC(=O)O)NC(=O)C(C)(C)NC(=O)[C@@H](NC(=O)C(C)(C)N)C(C)C)[C@@H](C)CC)C(=O)N[C@@H](Cc1c[nH]cn1)C(=O)N[C@@H](CCC(N)=O)C(=O)N[C@@H](CCCCNC(=N)N)C(=O)N[C@@H](C)C(=O)N[C@@H](CCCCN)C(=O)N[C@@H](Cc1c[nH]c2ccccc12)C(=O)N[C@@H](Cc1ccc(O)cc1)C(N)=O
notes: also called [Aib^1,3,M]rPTH(1-15)NH2; [Aib^1,3,M]PTH(1-15)

IC50 [4]: 122 nM | delayed cAMP response 60 minutes after wash-out, % of maximum, HKRK-B64 cells [16]: 34% | IC50 [6]: 0.76 nM | R0:RG [7]: 160
B11: [His^5]hPTH(1-34)NH2 (peptide)
peptide: SVSEHQLMHNLGKHLNSMERVEWLRKKLQDVHNF-NH2

Second part, the binder before the results:

B1: A20,Mc-PTH(1-34)OH (peptide)
peptide: AVAEIQLMHQRAKWLNSMRAVEWLRKKLQDVHNF-OH
notes: Mc = A1,3,12,Q10,R11,W14,R19
IC50 [1]: 31.9 nM | R0/RG ratio [2]: 80 | IC50 [3]: 0.4 nM

B3: rPTH(1-34)NH2 (peptide)
peptide: AVSEIQLMHNLGKHLASVERMQWLRKKLQDVHNF-NH2
notes: also called r(rat)PTH(1-34)NH2; rat-PTH(1-34)
IC50 [4]: 2.3 nM | cAMP in ROS17/2.8 cells, EC50 [5]: 0.021 nM | IC50 [6]: 0.34 nM | R0:RG [7]: 7

B5: A18,22,K26-PTHrP(1-28)NH (peptide)
peptide: AVSEHQLLHDKGKSIQDARRRAFLHKLI-NH2
IC50 [8]: 1820 nM | IC50 [9]: 1820 nM | R0/RG selectivity [10]: 18100 | human PIR RG (% parent) [11]: 193 % parent | IC50 [12]: 0.1 nM | IC50 [13]: 0.1 nM | human PIR R0 (% parent) [14]: 178 % parent

B8: [Nle^8,21,Tyr^34]rPTH(1-34)NH2 (peptide)
peptide: AVSEIQLXHNLGKHLASVERXQWLRKKLQDVHNY
modifications: Nle at 8 and 21; C-terminal amide
notes: also called [Nle^8,21,Tyr^34]rat(r)PTH(1-34)NH2; control PTH(1-34) analog
delayed cAMP response 60 minutes after wash-out, % of maximum, HKRK-B64 cells [16]: 47% | t1/2 of decay of the cAMP signaling response, HKRK-B7 cells [16]: ~2 h | IP in COS-7/hPTHR cells, EC50 [15]: 18 nM | IP in COS-7/hPTHR cells, Emax [15]: 2410 cpm/well | cAMP in HKRK-B64 cells, EC50 [15]: 5.1 nM | cAMP in HKRK-B64 cells, Emax [15]: 55 picomole/well | R0:RG [7]: 5

B10: [A1,3,23]-PTH(1-34)OH (peptide)
peptide: AVAEIQLMHNLGKHLNSMERVEALRKKLQDVHNF-OH
notes: also called [A^1,A^3,A^23]-PTH(1-34)OH; [A1,3,23]-hPTH(1-34)
IC50 [1]: 1840 nM | R0/RG ratio [2]: 4290 | cAMP in HKRK-B7 cells, EC50 [17]: 1.93 nM | cAMP in HKRK-B7 cells, Max [17]: 66.6 pm/well | IC50 [3]: 0.43 nM
